For series [1], the target named is T1, streptavidin (streptavidin-coated SA chip) (UniProt P22629 37-163, limits assumed).
T1 construct: Surface protein of the commercial SPR chip
The experiment in a line: SPR, Biacore 3000, streptavidin-coated (SA) chip. On the technique in general: In SPR one partner is held on a chip, and binding of the other changes the refractive index at the surface.

Series [2] deals with the molecule itself. The experiment in a line: circular dichroism in PBS; concentration dependence of MRE at 222 nm fitted for the Kd of coiled-coil dimerization (unfolding/dissociation of the dimer). Background: Circular dichroism is the unequal absorption of left and right circularly polarised light.

T1 sequence (P22629 37-163 limits assumed): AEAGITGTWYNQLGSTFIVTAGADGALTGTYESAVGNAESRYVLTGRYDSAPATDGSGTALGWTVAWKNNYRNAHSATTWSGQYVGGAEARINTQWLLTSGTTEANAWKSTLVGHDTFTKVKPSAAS

B1: PF4ZIP (peptide)
peptide: CGGRMKQLEDKVKKLLKKNYHLENEVARLKKLVG
notes: Free peptide made by Fmoc solid phase synthesis on Rink Amide MBHA resin; The measurement is the self-association of two such chains into a coiled-coil dimer; also called PF4ZIP peptide
Broadly, the Kd is a measure of binding affinity in units of concentration. Take B1: in series [1], the binding result is on record as “no binding”. Moreover, in series [2], binding was put at a Kd of 3.48 µM.

Values taken from patent US20100112057A1 (published 2010).
